From article PMC9482650, “Quantitative fragmentomics allow affinity mapping of interactomes” (Nature Communications, 2022) come the findings set out here.

Among the targets are GRASP, Q7Z6J2; SCRIB_1, Q14160; PDLIM1, O00151; PARD3_3, Q8TEW0; FRMPD3, Q5JV73; LDB3, O75112; DLG4_2, P78352; GRIP2_7, Q9C0E4; MAGI2_2, Q86UL8; DLG1_2, Q12959.
Holding throughout (experiment): holdup assay
Common to all, as to design: key: below the threshold = too weak to quantify, mostly under pKd 3.1 to 4
Holding throughout (conditions): plain residues with an end cap or a label only (N-terminal biotin on a linker: ado-ado)

For a further assay, the target named is T1, PTPN13_1, Q12923.
T1 sequence (Q12923 1088-1188, limits assumed, looked up): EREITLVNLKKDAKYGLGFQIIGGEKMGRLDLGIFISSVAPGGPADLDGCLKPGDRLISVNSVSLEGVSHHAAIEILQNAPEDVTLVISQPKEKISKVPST

For another assay, the target named is T2, DFNB31_2, Q9P202.
T2 sequence (Q9P202 274-371, limits assumed, looked up): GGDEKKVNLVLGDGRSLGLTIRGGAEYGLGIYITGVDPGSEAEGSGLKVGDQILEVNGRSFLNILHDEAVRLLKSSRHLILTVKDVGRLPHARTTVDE

Another assay has as its target T3, TIAM2, Q8IVF5.
T3 sequence (Q8IVF5 885-986, limits assumed, looked up): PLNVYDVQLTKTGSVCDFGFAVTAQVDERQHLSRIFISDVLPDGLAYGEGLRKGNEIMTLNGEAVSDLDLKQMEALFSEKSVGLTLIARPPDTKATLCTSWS

For another assay, the target named is T4, DFNB31_1, Q9P202.
T4 sequence (Q9P202 135-233, limits assumed, looked up): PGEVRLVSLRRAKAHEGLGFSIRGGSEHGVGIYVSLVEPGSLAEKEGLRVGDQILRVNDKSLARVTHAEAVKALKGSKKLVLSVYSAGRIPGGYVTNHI

The next assay addresses T5, CARD11, Q9BXL7.
T5 sequence (Q9BXL7 662-765, limits assumed, looked up): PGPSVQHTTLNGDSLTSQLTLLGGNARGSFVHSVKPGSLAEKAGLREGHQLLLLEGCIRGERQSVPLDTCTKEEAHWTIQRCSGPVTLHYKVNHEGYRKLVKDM

A further assay concerns the target T6, HTRA3, P83110.
T6 sequence (P83110 354-453, limits assumed, looked up): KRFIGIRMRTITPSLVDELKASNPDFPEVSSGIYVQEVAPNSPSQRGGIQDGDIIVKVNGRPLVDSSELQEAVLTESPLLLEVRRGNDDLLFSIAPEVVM

The next assay addresses T7, PDZD7_3, Q9H5P4.
T7 sequence (Q9H5P4 857-944, limits assumed, looked up): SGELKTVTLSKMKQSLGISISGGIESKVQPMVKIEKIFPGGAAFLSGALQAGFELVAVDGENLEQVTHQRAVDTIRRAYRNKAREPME

Another assay addresses T8, LIN7A, O14910.
T8 sequence (O14910 103-200, limits assumed, looked up): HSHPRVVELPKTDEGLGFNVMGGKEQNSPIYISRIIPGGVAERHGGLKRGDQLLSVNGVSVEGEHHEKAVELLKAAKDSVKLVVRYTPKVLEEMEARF

A further assay deals with T9, APBA1_1, Q02410.
T9 sequence (Q02410 651-752, limits assumed, looked up): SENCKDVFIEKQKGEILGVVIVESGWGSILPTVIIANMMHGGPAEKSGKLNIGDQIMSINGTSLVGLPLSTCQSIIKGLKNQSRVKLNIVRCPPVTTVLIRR

The target of a further assay is T10, GRIP1_4, Q9Y3R0.
T10 sequence (Q9Y3R0 467-571, limits assumed, looked up): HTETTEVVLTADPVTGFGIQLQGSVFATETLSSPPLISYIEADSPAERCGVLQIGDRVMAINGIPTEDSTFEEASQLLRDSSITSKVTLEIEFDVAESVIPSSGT

A further assay deals with T11, DVL3, Q92997.
T11 sequence (Q92997 244-331, limits assumed, looked up): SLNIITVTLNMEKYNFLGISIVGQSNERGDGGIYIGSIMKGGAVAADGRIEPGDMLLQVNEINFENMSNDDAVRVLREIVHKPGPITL

The target in the next assay is T12, SNTA1, Q13424.
T12 sequence (Q13424 82-180, limits assumed, looked up): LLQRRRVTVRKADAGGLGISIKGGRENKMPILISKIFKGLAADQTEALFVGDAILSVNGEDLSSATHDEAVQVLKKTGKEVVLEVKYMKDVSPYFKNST

Another assay deals with T13, LIN7B, Q9HAP6.
T13 sequence (Q9HAP6 88-185, limits assumed, looked up): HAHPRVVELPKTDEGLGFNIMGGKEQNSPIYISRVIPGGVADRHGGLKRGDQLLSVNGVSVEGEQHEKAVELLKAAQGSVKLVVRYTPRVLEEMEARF

The target in another assay is T14, DFNB31_3, Q9P202.
T14 sequence (Q9P202 811-907, limits assumed, looked up): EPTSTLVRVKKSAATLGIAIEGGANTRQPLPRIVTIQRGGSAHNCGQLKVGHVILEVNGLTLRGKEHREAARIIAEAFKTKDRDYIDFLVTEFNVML

SCRIB_1, Q14160, sequence (Q14160 718-814): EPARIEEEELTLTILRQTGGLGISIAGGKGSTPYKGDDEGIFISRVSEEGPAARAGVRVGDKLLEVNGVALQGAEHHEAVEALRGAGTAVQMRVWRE
MAGI2_2, Q86UL8, sequence (Q86UL8 410-522): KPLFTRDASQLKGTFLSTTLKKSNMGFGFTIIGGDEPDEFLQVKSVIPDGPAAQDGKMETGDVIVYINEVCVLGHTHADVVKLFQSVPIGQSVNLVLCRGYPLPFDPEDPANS
DLG4_2, P78352, sequence (P78352 155-259): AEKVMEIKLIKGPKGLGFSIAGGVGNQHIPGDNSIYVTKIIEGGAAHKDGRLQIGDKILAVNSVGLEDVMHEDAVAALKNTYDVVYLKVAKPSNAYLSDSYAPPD
PDLIM1, O00151, sequence (O00151 1-87): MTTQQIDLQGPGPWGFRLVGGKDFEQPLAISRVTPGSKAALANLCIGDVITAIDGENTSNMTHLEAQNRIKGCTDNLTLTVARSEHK
LDB3, O75112, sequence (O75112 1-94): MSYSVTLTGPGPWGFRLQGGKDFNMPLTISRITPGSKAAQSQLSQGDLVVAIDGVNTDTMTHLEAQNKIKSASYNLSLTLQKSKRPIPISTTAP
DLG1_2, Q12959, sequence (Q12959 314-412): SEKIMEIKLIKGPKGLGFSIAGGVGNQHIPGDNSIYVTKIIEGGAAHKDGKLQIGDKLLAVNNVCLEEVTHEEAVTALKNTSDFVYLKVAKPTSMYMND
GRIP2_7, Q9C0E4, sequence (Q9C0E4 934-1023): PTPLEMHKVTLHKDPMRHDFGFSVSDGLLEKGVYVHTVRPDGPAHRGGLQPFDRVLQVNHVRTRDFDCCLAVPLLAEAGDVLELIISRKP
PARD3_3, Q8TEW0, sequence (Q8TEW0 582-685): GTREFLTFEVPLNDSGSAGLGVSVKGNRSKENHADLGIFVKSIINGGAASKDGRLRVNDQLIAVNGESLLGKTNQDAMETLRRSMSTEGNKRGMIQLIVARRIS
FRMPD3, Q5JV73, sequence (Q5JV73 12-100): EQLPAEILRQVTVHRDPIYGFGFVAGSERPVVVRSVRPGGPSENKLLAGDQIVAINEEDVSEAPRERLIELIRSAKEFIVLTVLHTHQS
GRASP, Q7Z6J2, sequence (Q7Z6J2 96-193): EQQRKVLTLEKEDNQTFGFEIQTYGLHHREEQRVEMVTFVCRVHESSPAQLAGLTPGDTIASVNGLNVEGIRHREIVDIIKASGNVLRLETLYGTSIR

B1: UQCRC2, P22695 (peptide)
chain: LGHTPFVDEL
As usually defined, the pKd is the negative decadic logarithm of the Kd, by convention in mol/L. As for B1, the negative logarithm of the Kd (pKd) with GRASP, Q7Z6J2 was 3.85; in the assay with PTPN13_1, Q12923, “below the threshold”; with DFNB31_2, Q9P202 it was “below the threshold”; with SCRIB_1, Q14160, “below the threshold”; with TIAM2, Q8IVF5, “below the threshold”; in the assay with DFNB31_1, Q9P202, 3.5. The pKd entry with PDLIM1, O00151 is “below the threshold”; with PARD3_3, Q8TEW0, “below the threshold”; with CARD11, Q9BXL7 it was 3.53; with FRMPD3, Q5JV73, “below the threshold”; with LDB3, O75112 it was “below the threshold”; in the assay with HTRA3, P83110, “below the threshold”. Further, the pKd entry with PDZD7_3, Q9H5P4 was “below the threshold”; with LIN7A, O14910, 3.53; in the assay with APBA1_1, Q02410, “below the threshold”; in the assay with DLG4_2, P78352 it was “below the threshold”; in the assay with GRIP1_4, Q9Y3R0, “below the threshold”; in the assay with DVL3, Q92997, “below the threshold”. For the same molecule, the pKd entry with GRIP2_7, Q9C0E4 is “below the threshold”; with MAGI2_2, Q86UL8 it was “below the threshold”; with SNTA1, Q13424 it was “below the threshold”; in the assay with DLG1_2, Q12959, “below the threshold”; with LIN7B, Q9HAP6 it was “below the threshold”; in the assay with DFNB31_3, Q9P202 it was 3.82.

B2: NOS1AP, O75052 (peptide)
chain: GDGLDDEIAV
For B2, the negative logarithm of the Kd (pKd) result with GRASP, Q7Z6J2 was “below the threshold”; in the assay with PTPN13_1, Q12923, “below the threshold”; with DFNB31_2, Q9P202 it was “below the threshold”; with SCRIB_1, Q14160, “below the threshold”; with TIAM2, Q8IVF5, 3.8; with DFNB31_1, Q9P202 it was “below the threshold”. The pKd result with PDLIM1, O00151 was “below the threshold”; in the assay with PARD3_3, Q8TEW0 it was 4.3; in the assay with CARD11, Q9BXL7, “below the threshold”; in the assay with FRMPD3, Q5JV73, 4.16; with LDB3, O75112, “below the threshold”; in the assay with HTRA3, P83110, “below the threshold”. Moreover, the pKd result with PDZD7_3, Q9H5P4 is given as “below the threshold”; in the assay with LIN7A, O14910 it was “below the threshold”; with APBA1_1, Q02410, “below the threshold”; with DLG4_2, P78352 it was “below the threshold”; with GRIP1_4, Q9Y3R0, “below the threshold”; in the assay with DVL3, Q92997 it was “below the threshold”. The pKd entry with GRIP2_7, Q9C0E4 was “below the threshold”; with MAGI2_2, Q86UL8, “below the threshold”; in the assay with SNTA1, Q13424, 3.75; in the assay with DLG1_2, Q12959, “below the threshold”; in the assay with LIN7B, Q9HAP6, 3.52; with DFNB31_3, Q9P202, “below the threshold”.

B3: FZD8, Q9H461 (peptide)
chain: YPKQMPLSQV
For B3, the pKd result was “below the threshold” with GRASP, Q7Z6J2; “below the threshold” in the assay with PTPN13_1, Q12923; “below the threshold” with DFNB31_2, Q9P202; “below the threshold” in the assay with SCRIB_1, Q14160; “below the threshold” with TIAM2, Q8IVF5; 3.59 in the assay with DFNB31_1, Q9P202. Also, the negative-log Kd (pKd) result was “below the threshold” with PDLIM1, O00151; “below the threshold” in the assay with PARD3_3, Q8TEW0; “below the threshold” in the assay with CARD11, Q9BXL7; “below the threshold” in the assay with FRMPD3, Q5JV73; “below the threshold” with LDB3, O75112; “below the threshold” with HTRA3, P83110. The pKd in the assay with PDZD7_3, Q9H5P4 is 4.17; in the assay with LIN7A, O14910, “below the threshold”; with APBA1_1, Q02410, “below the threshold”; with DLG4_2, P78352, “below the threshold”; with GRIP1_4, Q9Y3R0 it was “below the threshold”; with DVL3, Q92997, “below the threshold”. The negative-log Kd (pKd) entry is “below the threshold” with GRIP2_7, Q9C0E4; 4.29 with MAGI2_2, Q86UL8; 3.67 with SNTA1, Q13424; “below the threshold” with DLG1_2, Q12959; “below the threshold” with LIN7B, Q9HAP6; “below the threshold” with DFNB31_3, Q9P202.

B4: PKP4, Q99569 (peptide)
chain: QYPGSPDSWV
B4: the pKd with GRASP, Q7Z6J2 is 3.52; with PTPN13_1, Q12923 it was “below the threshold”; in the assay with DFNB31_2, Q9P202, 3.62; with SCRIB_1, Q14160, 3.91; with TIAM2, Q8IVF5 it was “below the threshold”; with DFNB31_1, Q9P202, 4.28. The pKd with PDLIM1, O00151 is 4.14; with PARD3_3, Q8TEW0, 3.85; in the assay with CARD11, Q9BXL7, “below the threshold”; in the assay with FRMPD3, Q5JV73, 3.47; in the assay with LDB3, O75112 it was 3.82; with HTRA3, P83110, 5.54. For the same molecule, the negative logarithm of the Kd (pKd) with PDZD7_3, Q9H5P4 is 4.11; with LIN7A, O14910, “below the threshold”; with APBA1_1, Q02410 it was “below the threshold”; in the assay with DLG4_2, P78352, 4.62; in the assay with GRIP1_4, Q9Y3R0, “below the threshold”; with DVL3, Q92997 it was 3.93. Moreover, the pKd in the assay with GRIP2_7, Q9C0E4 is 3.96; with MAGI2_2, Q86UL8, “below the threshold”; in the assay with SNTA1, Q13424 it was 4.13; with DLG1_2, Q12959, 4.68; with LIN7B, Q9HAP6, “below the threshold”; with DFNB31_3, Q9P202 it was 3.75.
